The text below walks through data of paper doi:10.1101/2020.05.04.070177, “Mechanistic insights into RNA binding and RNA-regulated RIG-I ubiquitination by TRIM25” (bioRxiv, 2020).

Series [1] has as its target T1, TRIM25 CC-PRY/SPRY (UniProt Q14258 189-630). Kind of series: filter binding; ITC and filter binding: 20 mM MES pH 6.5, 75 mM NaCl, 0.5 mM TCEP (ITC 20 C, filter binding on ice); NMR: 20 mM Na phosphate pH 6.5, 150 mM NaCl, 2 mM TCEP, 293 K. Conditions: protein: recombinant, tags: His-Trx (removed), chain copies: 2, hairpin.
The target in series [2] is T1, TRIM25 CC-PRY/SPRY. Nature of the series: ITC; first of two fitted sites; ITC and filter binding: 20 mM MES pH 6.5, 75 mM NaCl, 0.5 mM TCEP (ITC 20 C, filter binding on ice); NMR: 20 mM Na phosphate pH 6.5, 150 mM NaCl, 2 mM TCEP, 293 K. Conditions: protein: recombinant; tags: His-Trx (removed); chain copies: 2; hairpin. In general terms: ITC needs no label: the signal is the heat of the interaction.

The target of series [3] is T2, TRIM25 CC-PRY/SPRY penta-mutant (UniProt Q14258 189-630, K283A;K285A;H505E;K508E;K602E). Kind of series: ITC; no binding detected; ITC and filter binding: 20 mM MES pH 6.5, 75 mM NaCl, 0.5 mM TCEP (ITC 20 C, filter binding on ice); NMR: 20 mM Na phosphate pH 6.5, 150 mM NaCl, 2 mM TCEP, 293 K. To be noted: protein: recombinant; tags: His-Trx (removed); chain copies: 2; hairpin.

The target of series [4] is T1, TRIM25 CC-PRY/SPRY. Kind of series: ITC; second fitted site, N 0.10; ITC and filter binding: 20 mM MES pH 6.5, 75 mM NaCl, 0.5 mM TCEP (ITC 20 C, filter binding on ice); NMR: 20 mM Na phosphate pH 6.5, 150 mM NaCl, 2 mM TCEP, 293 K. To be noted: protein: recombinant; tags: His-Trx (removed); chain copies: 2; hairpin.
Series [5] deals with the molecule itself. Kind of series: NMR titration; CC-PRY/SPRY with pre-let-7 RNA added; domain-domain interaction within the construct; 1H,15N-HSQC.
In series [6] the target is T1, TRIM25 CC-PRY/SPRY. Kind of series: ITC; ITC and filter binding: 20 mM MES pH 6.5, 75 mM NaCl, 0.5 mM TCEP (ITC 20 C, filter binding on ice); NMR: 20 mM Na phosphate pH 6.5, 150 mM NaCl, 2 mM TCEP, 293 K. To be noted: protein: recombinant; tags: His-Trx (removed); chain copies: 2; single strand.
Series [7] deals with T3, TRIM25 PRY/SPRY (UniProt Q14258 439-630). Described as above. To be noted: protein: recombinant; tags: His-Trx (removed); single strand.
The target in series [8] is T3, TRIM25 PRY/SPRY. Kind of series: NMR; CSPs at site 2 only; ITC and filter binding: 20 mM MES pH 6.5, 75 mM NaCl, 0.5 mM TCEP (ITC 20 C, filter binding on ice); NMR: 20 mM Na phosphate pH 6.5, 150 mM NaCl, 2 mM TCEP, 293 K. Conditions: protein: recombinant; tags: His-Trx (removed); chain copies: 3; hairpin.
Series [9] deals with T1, TRIM25 CC-PRY/SPRY. Nature of the series: ITC; second fitted site, N 0.08; ITC and filter binding: 20 mM MES pH 6.5, 75 mM NaCl, 0.5 mM TCEP (ITC 20 C, filter binding on ice); NMR: 20 mM Na phosphate pH 6.5, 150 mM NaCl, 2 mM TCEP, 293 K. Conditions: protein: recombinant; tags: His-Trx (removed); chain copies: 2; hairpin.
Series [10] addresses T1, TRIM25 CC-PRY/SPRY. Nature of the series: ITC; first of two fitted sites (second 106 nM); ITC and filter binding: 20 mM MES pH 6.5, 75 mM NaCl, 0.5 mM TCEP (ITC 20 C, filter binding on ice); NMR: 20 mM Na phosphate pH 6.5, 150 mM NaCl, 2 mM TCEP, 293 K. Conditions: protein: recombinant; tags: His-Trx (removed); chain copies: 2; hairpin.
The target of series [11] is T2, TRIM25 CC-PRY/SPRY penta-mutant. Kind of series: ITC; ITC and filter binding: 20 mM MES pH 6.5, 75 mM NaCl, 0.5 mM TCEP (ITC 20 C, filter binding on ice); NMR: 20 mM Na phosphate pH 6.5, 150 mM NaCl, 2 mM TCEP, 293 K. To be noted: protein: recombinant; tags: His-Trx (removed); chain copies: 2; hairpin.
Target sequence in this assay (Q14258 189-630 K283A/K285A/H505E/K508E/K602E): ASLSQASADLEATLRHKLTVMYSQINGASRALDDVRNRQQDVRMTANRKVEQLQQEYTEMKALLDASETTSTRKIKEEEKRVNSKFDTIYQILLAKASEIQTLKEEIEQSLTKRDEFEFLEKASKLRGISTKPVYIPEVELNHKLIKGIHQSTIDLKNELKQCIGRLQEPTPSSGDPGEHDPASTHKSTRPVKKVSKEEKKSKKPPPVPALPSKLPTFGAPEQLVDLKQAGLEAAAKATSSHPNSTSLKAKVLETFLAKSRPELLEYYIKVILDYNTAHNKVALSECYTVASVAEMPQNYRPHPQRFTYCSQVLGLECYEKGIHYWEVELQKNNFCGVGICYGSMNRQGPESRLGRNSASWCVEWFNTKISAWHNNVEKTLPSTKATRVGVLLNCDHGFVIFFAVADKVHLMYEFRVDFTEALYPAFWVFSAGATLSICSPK

B1: roX2 stem-loop (SL7 in text, SL6 in Table 2) (structured_RNA)
RNA: GUGUAAAAUGAUGGAAUAUAUACUAUCGUUUUACGC
In the case of B1, the Kd (usually the constant that tells how readily two partners part at equilibrium) in the series with TRIM25 CC-PRY/SPRY [1] (label: 5' 32P) turned out to be 18.1 ± 2.2 nM.

B2: Lnczc3h7a-SL (structured_RNA)
RNA: UUUUAUCUGAGUUGGAGGUGAAG
Turning to B2, the Kd with TRIM25 CC-PRY/SPRY [2] was determined as 486 ± 77 nM; with TRIM25 CC-PRY/SPRY [4], 8900 ± 4500 nM. Further, in series [3], the binding result was “no binding”.

B3: TRIM25 CC-PRY/SPRY (aa 189-630) (domain or fragment, human, UniProt Q14258 189-630, looked up)
chain: ASLSQASADLEATLRHKLTVMYSQINGASRALDDVRNRQQDVRMTANRKVEQLQQEYTEMKALLDASETTSTRKIKEEEKRVNSKFDTIYQILLKKKSEIQTLKEEIEQSLTKRDEFEFLEKASKLRGISTKPVYIPEVELNHKLIKGIHQSTIDLKNELKQCIGRLQEPTPSSGDPGEHDPASTHKSTRPVKKVSKEEKKSKKPPPVPALPSKLPTFGAPEQLVDLKQAGLEAAAKATSSHPNSTSLKAKVLETFLAKSRPELLEYYIKVILDYNTAHNKVALSECYTVASVAEMPQNYRPHPQRFTYCSQVLGLHCYKKGIHYWEVELQKNNFCGVGICYGSMNRQGPESRLGRNSASWCVEWFNTKISAWHNNVEKTLPSTKATRVGVLLNCDHGFVIFFAVADKVHLMYKFRVDFTEALYPAFWVFSAGATLSICSPK
notes: TRIM25 coiled-coil (CC), L2 linker and PRY/SPRY domain, aa 189-630; also called TRIM25 189-630
Regarding B3, the binding result in series [5] was “binds”.

B4: pre-let-7 loop (ssRNA)
RNA: UAAAAGGAGAU
As for B4, the Kd with TRIM25 CC-PRY/SPRY [6] came out at 4100 ± 1900 nM; with TRIM25 PRY/SPRY [7], 42000 ± 53000 nM.

B5: pre-let-7 stem (stem-fusion) (structured_RNA)
RNA: GUAUAGUUCAACUAUAC
B5: the binding result with TRIM25 PRY/SPRY [8] was “binds”.

B6: DENV-SL (structured_RNA)
RNA: GCAGGUCGGAUUAAGCCAUAGUACGGGAAAAACUAUGCUACCUG
With B6, the Kd was 106 ± 35 nM with TRIM25 CC-PRY/SPRY [9], 15.2 ± 3 nM with TRIM25 CC-PRY/SPRY [10], 363 ± 84 nM in [11] and 1.63 ± 0.38 nM with TRIM25 CC-PRY/SPRY [1].
